The source of these data is patent US20220119534A1 (DRAGONFLY THERAPEUTICS, published 2022).

Where two headings read alike, the source gives them in different places.

The target of experiment [1] is T1, recombinant human CLEC12A-His (human, UniProt Q5QGZ9 65-265).
T1 construct: also called hCLEC12A-His; hCLEC12A
T1 sequence: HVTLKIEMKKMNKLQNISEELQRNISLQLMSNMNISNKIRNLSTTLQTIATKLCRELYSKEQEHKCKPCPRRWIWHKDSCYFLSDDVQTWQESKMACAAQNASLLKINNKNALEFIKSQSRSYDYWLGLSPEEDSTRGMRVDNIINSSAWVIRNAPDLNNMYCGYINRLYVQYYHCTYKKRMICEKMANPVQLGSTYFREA
Description: SPR screening, semi-purified.

Experiment [2] has as its target T2, human CLEC12A expressed on cells (human, UniProt Q5QGZ9 1-265).
T2 construct: Transduced isogenic cells or endogenous expression on AML cells; also called RMA-hCLEC12A; Ba/F3-hCLEC12A
T2 sequence: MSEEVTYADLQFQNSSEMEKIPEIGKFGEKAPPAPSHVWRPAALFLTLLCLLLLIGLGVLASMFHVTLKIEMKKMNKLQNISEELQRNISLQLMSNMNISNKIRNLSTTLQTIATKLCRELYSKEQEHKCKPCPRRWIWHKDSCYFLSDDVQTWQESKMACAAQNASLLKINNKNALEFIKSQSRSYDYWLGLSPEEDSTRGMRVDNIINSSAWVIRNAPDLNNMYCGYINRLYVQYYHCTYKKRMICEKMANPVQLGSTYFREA
Description: flow cytometry, hCLEC12A+ Ba/F3. For orientation: Flow cytometry measures light scatter and fluorescence of single cells or particles in a stream.

The target of experiment [3] is T2, human CLEC12A expressed on cells. Description: flow cytometry, HL60.
For experiment [4], the target named is T1, recombinant human CLEC12A-His. In words: SPR screening, semi-purified. This is another data set of the same source.
Description: Binding affinities of the 18 semi-purified TriNKETs for hCLEC12A were assessed by SPR in screening.

B1: AB0191 (other)
chain: EVQLVESGGGVVQPGGSLRLSCAASGFTFNSFGMHWVRQAPGKCLEWVAFISSGSTSIYYANTVKGRFTISRDNSKNTLYLQMNSLRAEDTAVYYCARDGYPTGGAMDYWGQGTSVTVSSGGGGSGGGGSGGGGSGGGGSDIQMTQSPSSLSASVGDRVTITCKASQDIYNYLSWFQQKPGKAPKPLIYRANILVSGVPSRFSGSGSGQDYTFTISSLQPEDIATYYCLQFDAFPFTFGCGTKLEIKGSDKTHTCPPCPAPELLGGPSVFLFPPKPKDTLMISRTPEVTCVVVDVSHEDPEVKFNWYVDGVEVHNAKTKPREEQYNSTYRVVSVLTVLHQDWLNGKEYKCKVSNKALPAPIEKTISKAKGQPREPRVYTLPPCRDELTKNQVSLTCLVKGFYPSDIAVEWESNGQPENNYKTTPPVLVSDGSFTLYSKLTVDKSRWQQGNVFSCSVMHEALHNHYTQKSLSLSPG
heavy: EVQLVESGGGLVKPGGSLRLSCAASGFTFSSYSMNWVRQAPGKGLEWVSSISSSSSYIYYADSVKGRFTISRDNAKNSLYLQMNSLRAEDTAVYYCARGAPIGAAAGWFDPWGQGTLVTVSSASTKGPSVFPLAPSSKSTSGGTAALGCLVKDYFPEPVTVSWNSGALTSGVHTFPAVLQSSGLYSLSSVVTVPSSSLGTQTYICNVNHKPSNTKVDKKVEPKSCDKTHTCPPCPAPELLGGPSVFLFPPKPKDTLMISRTPEVTCVVVDVSHEDPEVKFNWYVDGVEVHNAKTKPREEQYNSTYRVVSVLTVLHQDWLNGKEYKCKVSNKALPAPIEKTISKAKGQPREPQVCTLPPSRDELTENQVSLTCLVKGFYPSDIAVEWESNGQPENNYKTTPPVLDSDGSFFLYSWLTVDKSRWQQGNVFSCSVMHEALHNHYTQKSLSLSPG
light: DIQMTQSPSSVSASVGDRVTITCRASQGISSWLAWYQQKPGKAPKLLIYAASSLQSGVPSRFSGSGSGTDFTLTISSLQPEDFATYYCQQGVSFPRTFGGGTKVEIKRTVAAPSVFIFPPSDEQLKSGTASVVCLLNNFYPREAKVQWKVDNALQSGNSQESVTEQDSKDSTYSLSSTLTLSKADYEKHKVYACEVTHQGLSSPVTKSFNRGEC
notes: As AB0185
As a reminder, the Kd is the concentration at which binding is half-saturated. The term koff denotes the first-order rate constant of dissociation. As a reminder, the kon is the rate constant with which the complex forms. A word on the EC50: it is the concentration at which the effect is half-maximal. A low value points to a more potent agent. Take B1: in experiment [1], the Kd was determined as 1.73 nM, the koff stood at 0.00126 s⁻¹ and the kon is 728000 M⁻¹ s⁻¹. In addition, in experiment [2], the concentration for a half-maximal effect (EC50) is 0.6 nM and the “Max binding MFI” value was found to be 7940 MFI. In experiment [3], the EC50 stood at 0.6 nM and the “Max binding MFI” value was found to be 420 MFI.

B2: AB0185 (other)
chain: DIQMTQSPSSLSASVGDRVTITCKASQDIYNYLSWFQQKPGKAPKPLIYRANILVSGVPSRFSGSGSGQDYTFTISSLQPEDIATYYCLQFDAFPFTFGCGTKLEIKGGGGSGGGGSGGGGSGGGGSEVQLVESGGGVVQPGGSLRLSCAASGFTFNSFGMHWVRQAPGKCLEWVAFISSGSTSIYYANTVKGRFTISRDNSKNTLYLQMNSLRAEDTAVYYCARDGYPTGGAMDYWGQGTSVTVSSGSDKTHTCPPCPAPELLGGPSVFLFPPKPKDTLMISRTPEVTCVVVDVSHEDPEVKFNWYVDGVEVHNAKTKPREEQYNSTYRVVSVLTVLHQDWLNGKEYKCKVSNKALPAPIEKTISKAKGQPREPRVYTLPPCRDELTKNQVSLTCLVKGFYPSDIAVEWESNGQPENNYKTTPPVLVSDGSFTLYSKLTVDKSRWQQGNVFSCSVMHEALHNHYTQKSLSLSPG
heavy: EVQLVESGGGLVKPGGSLRLSCAASGFTFSSYSMNWVRQAPGKGLEWVSSISSSSSYIYYADSVKGRFTISRDNAKNSLYLQMNSLRAEDTAVYYCARGAPIGAAAGWFDPWGQGTLVTVSSASTKGPSVFPLAPSSKSTSGGTAALGCLVKDYFPEPVTVSWNSGALTSGVHTFPAVLQSSGLYSLSSVVTVPSSSLGTQTYICNVNHKPSNTKVDKKVEPKSCDKTHTCPPCPAPELLGGPSVFLFPPKPKDTLMISRTPEVTCVVVDVSHEDPEVKFNWYVDGVEVHNAKTKPREEQYNSTYRVVSVLTVLHQDWLNGKEYKCKVSNKALPAPIEKTISKAKGQPREPQVCTLPPSRDELTENQVSLTCLVKGFYPSDIAVEWESNGQPENNYKTTPPVLDSDGSFFLYSWLTVDKSRWQQGNVFSCSVMHEALHNHYTQKSLSLSPG
light: DIQMTQSPSSVSASVGDRVTITCRASQGISSWLAWYQQKPGKAPKLLIYAASSLQSGVPSRFSGSGSGTDFTLTISSLQPEDFATYYCQQGVSFPRTFGGGTKVEIKRTVAAPSVFIFPPSDEQLKSGTASVVCLLNNFYPREAKVQWKVDNALQSGNSQESVTEQDSKDSTYSLSSTLTLSKADYEKHKVYACEVTHQGLSSPVTKSFNRGEC
notes: Humanized 9F11.B7 F3' TriNKET; scFv-Fc chain built from the general F3' description
Consider B2, for which, in experiment [1], the equilibrium dissociation constant (Kd) came out at 1.4 nM, the off-rate constant (koff) is 0.00101 s⁻¹ and the kon came out at 726000 M⁻¹ s⁻¹. Moreover, in experiment [2], the midpoint of the response, the EC50, lay at 0.7 nM and the “Max binding MFI” value was determined as 8020 MFI. Besides, in experiment [3], the EC50 amounted to 0.4 nM and the “Max binding MFI” value came to 372 MFI.

B3: F3'-1306 (other)
chain: DIQMTQSPSSLSASVGDRVTITCHASQNINFWLSWYQQKPGKAPKLLIYEASNLHTGVPSRFSGSGSGTRFTLTISSLQPEDIATYYCQQSHSYPLTFGCGTKLEIKGGGGSGGGGSGGGGSGGGGSQLQLQESGPGLVKPSETLSLTCTVSGFSLTNYGLHWIRQPPGKCLEWIGVIWSGGKTDYNPSLKSRVTISKDTSKNQFSLKLSSVQANDTAVYYCAKYDYDDSLDYWGQGTLVTVSSGSDKTHTCPPCPAPELLGGPSVFLFPPKPKDTLMISRTPEVTCVVVDVSHEDPEVKFNWYVDGVEVHNAKTKPREEQYNSTYRVVSVLTVLHQDWLNGKEYKCKVSNKALPAPIEKTISKAKGQPREPRVYTLPPCRDELTKNQVSLTCLVKGFYPSDIAVEWESNGQPENNYKTTPPVLVSDGSFTLYSKLTVDKSRWQQGNVFSCSVMHEALHNHYTQKSLSLSPG
heavy: EVQLVESGGGLVKPGGSLRLSCAASGFTFSSYSMNWVRQAPGKGLEWVSSISSSSSYIYYADSVKGRFTISRDNAKNSLYLQMNSLRAEDTAVYYCARGAPIGAAAGWFDPWGQGTLVTVSSASTKGPSVFPLAPSSKSTSGGTAALGCLVKDYFPEPVTVSWNSGALTSGVHTFPAVLQSSGLYSLSSVVTVPSSSLGTQTYICNVNHKPSNTKVDKKVEPKSCDKTHTCPPCPAPELLGGPSVFLFPPKPKDTLMISRTPEVTCVVVDVSHEDPEVKFNWYVDGVEVHNAKTKPREEQYNSTYRVVSVLTVLHQDWLNGKEYKCKVSNKALPAPIEKTISKAKGQPREPQVCTLPPSRDELTENQVSLTCLVKGFYPSDIAVEWESNGQPENNYKTTPPVLDSDGSFFLYSWLTVDKSRWQQGNVFSCSVMHEALHNHYTQKSLSLSPG
light: DIQMTQSPSSVSASVGDRVTITCRASQGISSWLAWYQQKPGKAPKLLIYAASSLQSGVPSRFSGSGSGTDFTLTISSLQPEDFATYYCQQGVSFPRTFGGGTKVEIKRTVAAPSVFIFPPSDEQLKSGTASVVCLLNNFYPREAKVQWKVDNALQSGNSQESVTEQDSKDSTYSLSSTLTLSKADYEKHKVYACEVTHQGLSSPVTKSFNRGEC
notes: As F3'-1292
For the molecule B3, in experiment [4], the Kd came out at 5.16 nM, the koff was found to be 0.0489 s⁻¹ and the kon is 9.48e+06 M⁻¹ s⁻¹.

B4: AB0195 (other)
chain: EVQLVESGGGVVQPGGSLRLSCAASGFTFNAFGMHWVRQAPGKCLEWVAFISSGSTSIYYANTVKGRFTISRDNSKNTLYLQMNSLRAEDTAVYYCARDGYPTGGAMDYWGQGTSVTVSSGGGGSGGGGSGGGGSGGGGSDIKMTQSPSSLSASVGDRVTITCKASQDIYNYLSWFQQKPGKAPKPLIYRANILVSGVPSRFSGSGSGQDYTLTISSLQPEDIATYYCLQFDAFPFTFGCGTKLEIKGSDKTHTCPPCPAPELLGGPSVFLFPPKPKDTLMISRTPEVTCVVVDVSHEDPEVKFNWYVDGVEVHNAKTKPREEQYNSTYRVVSVLTVLHQDWLNGKEYKCKVSNKALPAPIEKTISKAKGQPREPRVYTLPPCRDELTKNQVSLTCLVKGFYPSDIAVEWESNGQPENNYKTTPPVLVSDGSFTLYSKLTVDKSRWQQGNVFSCSVMHEALHNHYTQKSLSLSPG
heavy: EVQLVESGGGLVKPGGSLRLSCAASGFTFSSYSMNWVRQAPGKGLEWVSSISSSSSYIYYADSVKGRFTISRDNAKNSLYLQMNSLRAEDTAVYYCARGAPIGAAAGWFDPWGQGTLVTVSSASTKGPSVFPLAPSSKSTSGGTAALGCLVKDYFPEPVTVSWNSGALTSGVHTFPAVLQSSGLYSLSSVVTVPSSSLGTQTYICNVNHKPSNTKVDKKVEPKSCDKTHTCPPCPAPELLGGPSVFLFPPKPKDTLMISRTPEVTCVVVDVSHEDPEVKFNWYVDGVEVHNAKTKPREEQYNSTYRVVSVLTVLHQDWLNGKEYKCKVSNKALPAPIEKTISKAKGQPREPQVCTLPPSRDELTENQVSLTCLVKGFYPSDIAVEWESNGQPENNYKTTPPVLDSDGSFFLYSWLTVDKSRWQQGNVFSCSVMHEALHNHYTQKSLSLSPG
light: DIQMTQSPSSVSASVGDRVTITCRASQGISSWLAWYQQKPGKAPKLLIYAASSLQSGVPSRFSGSGSGTDFTLTISSLQPEDFATYYCQQGVSFPRTFGGGTKVEIKRTVAAPSVFIFPPSDEQLKSGTASVVCLLNNFYPREAKVQWKVDNALQSGNSQESVTEQDSKDSTYSLSSTLTLSKADYEKHKVYACEVTHQGLSSPVTKSFNRGEC
notes: As AB0185
With B4, in experiment [1], the Kd was 1.68 nM, the koff is 0.00129 s⁻¹ and the kon is 766000 M⁻¹ s⁻¹. In experiment [2], the EC50 stood at 0.6 nM and the “Max binding MFI” value is 10800 MFI. In addition, in experiment [3], the midpoint of the response, the EC50, lay at 0.7 nM and the “Max binding MFI” value turned out to be 551 MFI.
